Results published in EP4714971A1 (Shanghai Hansoh Biomedical Co., Ltd., dated 2024).
Values belong to the binder of their own block, whether it stands above or below them.

How the values were obtained:
[1] = target: T1, human SEZ6 expressed on stably transfected CHO-K1 cells (human, UniProt Q53EL9 20-994); test: flow cytometry on CHO-K1 cells expressing human SEZ6
T1 construct: also called CHO-SEZ6; hSEZ6
T1 sequence: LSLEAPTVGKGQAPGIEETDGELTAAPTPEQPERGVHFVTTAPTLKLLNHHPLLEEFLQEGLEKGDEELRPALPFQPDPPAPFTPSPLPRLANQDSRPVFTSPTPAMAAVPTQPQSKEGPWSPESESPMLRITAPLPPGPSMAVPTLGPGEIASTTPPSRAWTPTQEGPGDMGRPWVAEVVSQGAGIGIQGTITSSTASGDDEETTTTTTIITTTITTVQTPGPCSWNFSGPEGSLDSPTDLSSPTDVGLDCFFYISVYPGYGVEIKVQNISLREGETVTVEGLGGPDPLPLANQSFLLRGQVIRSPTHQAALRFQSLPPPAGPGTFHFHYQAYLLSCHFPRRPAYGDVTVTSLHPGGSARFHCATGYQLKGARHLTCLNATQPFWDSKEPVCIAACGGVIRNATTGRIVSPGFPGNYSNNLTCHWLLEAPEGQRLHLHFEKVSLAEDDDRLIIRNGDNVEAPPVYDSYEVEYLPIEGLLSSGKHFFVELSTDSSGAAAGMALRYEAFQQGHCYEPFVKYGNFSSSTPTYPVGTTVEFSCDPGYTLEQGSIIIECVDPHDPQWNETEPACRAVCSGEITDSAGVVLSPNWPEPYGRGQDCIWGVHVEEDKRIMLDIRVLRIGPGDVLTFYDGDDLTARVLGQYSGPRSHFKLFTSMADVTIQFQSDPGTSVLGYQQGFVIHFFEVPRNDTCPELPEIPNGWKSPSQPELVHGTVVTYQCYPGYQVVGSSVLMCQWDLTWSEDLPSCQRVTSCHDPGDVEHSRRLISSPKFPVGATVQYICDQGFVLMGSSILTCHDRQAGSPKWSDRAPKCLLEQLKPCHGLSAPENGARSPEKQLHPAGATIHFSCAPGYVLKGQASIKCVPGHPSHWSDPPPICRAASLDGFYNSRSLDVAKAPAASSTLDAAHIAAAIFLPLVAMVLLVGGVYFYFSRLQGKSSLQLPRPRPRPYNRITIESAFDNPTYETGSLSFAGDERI

[2] = target: T2, Recombinant monkey SEZ6-His6 protein (cynomolgus monkey, UniProt Q53EL9 20-925 (human entry)); test: SPR (BIAcore 8K), antibody captured on protein A chip, SEZ6-His6 as analyte, 1:1 Langmuir model
T2 construct: also called Cynomolgus monkey SEZ6-His6
T2 chain: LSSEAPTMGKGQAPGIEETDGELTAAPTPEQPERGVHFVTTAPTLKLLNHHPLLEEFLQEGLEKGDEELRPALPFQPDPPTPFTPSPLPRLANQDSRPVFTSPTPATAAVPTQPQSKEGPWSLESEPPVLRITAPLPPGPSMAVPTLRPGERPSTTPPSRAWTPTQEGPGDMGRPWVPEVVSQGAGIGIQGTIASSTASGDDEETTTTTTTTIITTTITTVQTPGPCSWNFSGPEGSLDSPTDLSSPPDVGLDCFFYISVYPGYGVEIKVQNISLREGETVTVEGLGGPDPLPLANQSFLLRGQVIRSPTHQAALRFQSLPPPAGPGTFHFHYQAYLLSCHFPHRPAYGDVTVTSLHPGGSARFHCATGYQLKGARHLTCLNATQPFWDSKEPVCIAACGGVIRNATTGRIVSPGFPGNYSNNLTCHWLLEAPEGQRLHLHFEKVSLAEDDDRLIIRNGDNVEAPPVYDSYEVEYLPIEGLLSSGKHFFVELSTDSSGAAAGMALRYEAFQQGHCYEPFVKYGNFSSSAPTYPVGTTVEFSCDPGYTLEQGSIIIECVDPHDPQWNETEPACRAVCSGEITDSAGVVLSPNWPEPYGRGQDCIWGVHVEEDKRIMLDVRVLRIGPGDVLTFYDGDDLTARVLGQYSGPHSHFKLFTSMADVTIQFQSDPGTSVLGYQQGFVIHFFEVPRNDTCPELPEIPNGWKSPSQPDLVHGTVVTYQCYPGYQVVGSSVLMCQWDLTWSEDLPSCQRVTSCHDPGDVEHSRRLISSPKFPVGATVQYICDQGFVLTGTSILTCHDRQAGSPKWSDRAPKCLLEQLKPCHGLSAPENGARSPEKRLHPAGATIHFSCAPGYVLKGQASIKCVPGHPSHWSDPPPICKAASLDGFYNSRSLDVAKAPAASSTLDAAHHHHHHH

[3] = target: T3, Recombinant human SEZ6-His6 protein (human, UniProt Q53EL9 20-925); test: as above
T3 construct: also called His-tagged SEZ6 antigen
T3 sequence: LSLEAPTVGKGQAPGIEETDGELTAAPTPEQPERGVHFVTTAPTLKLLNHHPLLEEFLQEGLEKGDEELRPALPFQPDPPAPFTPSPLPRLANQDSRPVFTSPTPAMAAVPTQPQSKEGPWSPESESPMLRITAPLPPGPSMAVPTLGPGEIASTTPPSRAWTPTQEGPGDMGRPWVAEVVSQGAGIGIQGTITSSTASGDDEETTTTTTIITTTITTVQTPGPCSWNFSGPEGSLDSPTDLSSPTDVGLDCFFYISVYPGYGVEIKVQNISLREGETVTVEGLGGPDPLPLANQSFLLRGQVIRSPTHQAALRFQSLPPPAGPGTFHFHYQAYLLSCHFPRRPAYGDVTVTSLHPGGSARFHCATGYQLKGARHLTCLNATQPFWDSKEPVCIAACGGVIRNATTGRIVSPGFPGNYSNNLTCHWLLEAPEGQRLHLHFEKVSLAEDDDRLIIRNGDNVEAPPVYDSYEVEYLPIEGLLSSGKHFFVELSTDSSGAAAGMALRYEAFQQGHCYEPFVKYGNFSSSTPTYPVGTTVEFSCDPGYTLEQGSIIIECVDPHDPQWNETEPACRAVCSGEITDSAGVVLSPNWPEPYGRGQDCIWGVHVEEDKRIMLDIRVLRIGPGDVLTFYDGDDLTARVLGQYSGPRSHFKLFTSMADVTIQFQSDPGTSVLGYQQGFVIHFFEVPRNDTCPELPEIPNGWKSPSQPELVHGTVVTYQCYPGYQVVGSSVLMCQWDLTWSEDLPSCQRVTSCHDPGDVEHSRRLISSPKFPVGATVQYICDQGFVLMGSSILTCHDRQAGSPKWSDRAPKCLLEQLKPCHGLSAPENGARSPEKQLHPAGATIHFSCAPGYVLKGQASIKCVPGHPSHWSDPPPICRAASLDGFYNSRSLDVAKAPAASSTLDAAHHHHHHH

- EC50 [1]: 0.05 nM
- MFImax [1]: 1300
- Kd [2]: 1.55 nM
- koff [2]: 0.000616 s⁻¹
- kon [2]: 398000 M⁻¹ s⁻¹
- Kd [3]: 1.61 nM
- koff [3]: 0.00064 s⁻¹
- kon [3]: 396000 M⁻¹ s⁻¹
B1: PR3178 (antibody, human IgG1, kappa, V domains shown)
VH: QVQLVQSGAEVKKPGASVKVSCKASGYTFTDYEMHWVRQAPGQGLEWMGGIDPESDNTVYNQKFKGRVTLTEDTSTSTAYMELRSLRSEDTAVYYCTRGDWYFDVWGQGTTVTVSS
VL: DIVMTQSPDSLAVSLGERATINCKSSQSLLNSRTRENYLAWYQQKPGQPPKLLIYWASTRESGVPDRFSGSGSGTDFTLTISSLQAEDVAVYYCGQSYNLFTFGQGTKLEIKR
notes: Humanized, human IgG1, kappa; also called humanized antibody of cAb3009

- EC50 [1]: 0.26 nM
- MFImax [1]: 1160
- Kd [2]: 57.9 nM
- koff [2]: 0.00475 s⁻¹
- kon [2]: 82000 M⁻¹ s⁻¹
- Kd [3]: 59.9 nM
- koff [3]: 0.00468 s⁻¹
- kon [3]: 78200 M⁻¹ s⁻¹
B2: hSC200 (hSC17.200) (antibody, human IgG1, kappa, V domains shown)
VH: EVQLVQSGAEVKKPGESLKISCKGSGYSFTSSWINWVRQMPGKGLEWMGRIYPGEGDTNYNGNFEGQVTISADKSISTAYLQWSSLKASDTAMYYCTRGLVMDYWGQGTLVTVSS
VL: EIVLTQSPATLSLSPGERATLSCRASQSVDYNGISYMHWYQQKPGQAPRLLIYAASNVQSGIPARFSGSGSGTDFTLTISSLEPEDFAVYYCQQSIEDPPTFGGGTKVEIKR
notes: also called control molecule; control antibody
